In the Human Domainome abundance scans (Beltran et al. 2025):
± gives the uncertainty stated by the source.

B1: Tumor protein p73, residues 487 to 549; numbered along this chain, O15350 (parent)
chain: YHADPSLVSFLTGLGCPNCIEYFTSQGLQSIYHLQNLTIEDLGALKIPEQYRMTIWRGLQDLK

Variants of: B1
Experiment: abundance fitness (aPCA) (normalised: wild type 0, dead -1); higher = more abundant; growth selection in yeast, the domain comes from the species named
Conditions: Homo sapiens

First: YHADPSLVSFLTGLGCPNCIEYFTSQGLQSIYHLQNLTIEDLGALKIPEQYRMTWWRGLQDLK
Second: YHADPSLVSFLTGLGCPNCIEYFTSQGLQSIYHLQNLTIEDLGALKIPEQYRITIWRGLQDLK
The abundance fitness of the first is lower: -0.923 ± 0.084 for the first, -0.072 ± 0.1 for the second.

Compared with YHADPSLVSFLTGLGCPNCIEYFTSQGLQSIYHLQNLTIEDLGALKIPEQYRPTIWRGLQDLK, YHADCSLVSFLTGLGCPNCIEYFTSQGLQSIYHLQNLTIEDLGALKIPEQYRMTIWRGLQDLK is higher in abundance fitness: -0.051 ± 0.053 for the first, 0.167 ± 0.11 for the second.

YHADPSLVSFLTGLGCPNCIEYFTSQGLQSIYHLQNLTIEDLGALKIPEDYRMTIWRGLQDLK and YHADPSLVSFLTGLGCPNCIEYFTSQGLQSIYHLQNLTIEDLGALKIPEWYRMTIWRGLQDLK are within error of each other in abundance fitness: -0.106 ± 0.2 for the first, -0.135 ± 0.03 for the second.

YHADPSLVSFLTGLGCPNCIEYFTSQGLQSIYHLQNLTIEDLGALKIPEHYRMTIWRGLQDLK and YHADPSLVSFLFGLGCPNCIEYFTSQGLQSIYHLQNLTIEDLGALKIPEQYRMTIWRGLQDLK are within error of each other in abundance fitness: 0.039 ± 0.065 for the first, -0.092 ± 0.078 for the second.

Going from YHADPSLVSFLCGLGCPNCIEYFTSQGLQSIYHLQNLTIEDLGALKIPEQYRMTIWRGLQDLK to YHADPSLVSFLTGLGCPNCIEYFTSQGLQSIYHLQNLTIEDLGALKIPEQYRMTIWRGYQDLK, the abundance fitness rises from -0.386 ± 0.065 to -0.097 ± 0.12.

First: YHADPSLVSFLTGLGCPNCIEYFTSQGLQSIYHLQNLTIEDLGALKIPEQYRMTIWEGLQDLK
Second: YHADPSLVSFLTGLGCPNCIEYFTSQGLQSIYHLQNLTIEDLGALKIPEQYRMTIWPGLQDLK
The abundance fitness of the first is higher: -0.058 ± 0.057 for the first, -0.625 ± 0.11 for the second.

YHADPSLVSFLTGLGCPNCIEYFTSQGLQSIYHLQNLTIEDLGALKIPEQYRMTIWTGLQDLK and YHADPSLVSFLTGLGCPNCIEYFTSQGLQSIYHLQNLTIEDLGALKIPEQYRMTIWFGLQDLK are within error of each other in abundance fitness: 0.024 ± 0.054 for the first, 0.311 ± 0.39 for the second.

Going from YHADPSLVSFLTGLGCPNCIEYFTSQGLQSIYHLQNLTIEDLGALKCPEQYRMTIWRGLQDLK to YHADPSLVSFLTGLGCPNCIEYFTSQGLQSIYHLQNLTIEDLGALKVPEQYRMTIWRGLQDLK, the abundance fitness rises from -0.171 ± 0.034 to 0.071 ± 0.026.

Going from YHADPSLVSFLTGLGCPNCIEYFTSQGLQSIYHLQNLTIEDLGALKFPEQYRMTIWRGLQDLK to YHADPSLVSFLTGLGCPNCIEYFTSQGLQSIYHLQNLTIEDLGALRIPEQYRMTIWRGLQDLK, the abundance fitness rises from -0.263 ± 0.068 to 0.041 ± 0.03.

YHADPSLVSFLTGLGCPNCIVYFTSQGLQSIYHLQNLTIEDLGALKIPEQYRMTIWRGLQDLK and YHADPSLVSFLTGLGCPNCIEMFTSQGLQSIYHLQNLTIEDLGALKIPEQYRMTIWRGLQDLK are within error of each other in abundance fitness: -0.018 ± 0.031 for the first, -0.026 ± 0.055 for the second.

Going from YHADPSLVSFLTGLGCPNCIEEFTSQGLQSIYHLQNLTIEDLGALKIPEQYRMTIWRGLQDLK to YHADPSLVSFLTGLGCPNCIEYFTSQGLQSIYHLQNLTIEDLGALKITEQYRMTIWRGLQDLK, the abundance fitness falls from -0.107 ± 0.046 to -0.247 ± 0.05.

YHADPSLVSFLTGLGCPNCIEYFTSQGLQSIYHLQNLTIEDLGALKIIEQYRMTIWRGLQDLK and YHADPSLVSFLTGLGCPNCIEYFTSQGLQSIYHLQNLTIEDLGALKIHEQYRMTIWRGLQDLK are within error of each other in abundance fitness: -0.144 ± 0.18 for the first, -0.389 ± 0.083 for the second.

YHADPSLVSFLTGLGCPNCIEYFTSQGLQSIYHLQQLTIEDLGALKIPEQYRMTIWRGLQDLK and YHADPSLVSFLTGLGCPNCIEYFTSQRLQSIYHLQNLTIEDLGALKIPEQYRMTIWRGLQDLK are within error of each other in abundance fitness: 0.022 ± 0.038 for the first, -0.024 ± 0.025 for the second.

Going from YHADPSLVSFLTGLGCPNCIEYFTSQGLQSIYHLTNLTIEDLGALKIPEQYRMTIWRGLQDLK to YHADPSLVSFLTGLGCPNCIEYFTSQGLQSIYHLQNLTIEDLGALKIPEQYRMTIWRGLQTLK, the abundance fitness rises from -0.084 ± 0.042 to -0.003 ± 0.035.

Compared with YHADPSLVSFLTGLGCPNCIEYFTSQGLQSIYHLQNLTIEDLGALKIPEQYRMTIWRGLQLLK, YHADPSLVSHLTGLGCPNCIEYFTSQGLQSIYHLQNLTIEDLGALKIPEQYRMTIWRGLQDLK is lower in abundance fitness: -0.087 ± 0.041 for the first, -0.971 ± 0.18 for the second.

First: YHADPSLVSNLTGLGCPNCIEYFTSQGLQSIYHLQNLTIEDLGALKIPEQYRMTIWRGLQDLK
Second: YHADPSLVSFLTGLGCPNCIEYFMSQGLQSIYHLQNLTIEDLGALKIPEQYRMTIWRGLQDLK
The abundance fitness of the first is lower: -0.804 ± 0.35 for the first, 0.018 ± 0.044 for the second.

Compared with YHADPSLVSFLTGLGCPNCIEYFTSQGLQSIYHLQNLTIEDIGALKIPEQYRMTIWRGLQDLK, YHADPSLVSFLTGLGCPNCIEYFTSQGLQSIYHLQNLTIEDPGALKIPEQYRMTIWRGLQDLK is lower in abundance fitness: -0.215 ± 0.13 for the first, -0.696 ± 0.11 for the second.

YHADPSLVSFLTGLGCPNCIEYFTSQGLQSIYHLQNLTIEDDGALKIPEQYRMTIWRGLQDLK and YHADPSLVSFLTGLGCPNCIEYFTSQGLQSIYHLQNLTIEDRGALKIPEQYRMTIWRGLQDLK are within error of each other in abundance fitness: -0.618 ± 0.33 for the first, -0.733 ± 0.051 for the second.

YHADPSLVSFLTGLGCPNCIEYFTSQGLQSIYHLQNLTIEDAGALKIPEQYRMTIWRGLQDLK and YHADPSLVSFLTGLGCPNCIEYFTSQGLQSIYHLQNLTIEDQGALKIPEQYRMTIWRGLQDLK are within error of each other in abundance fitness: -0.447 ± 0.048 for the first, -0.512 ± 0.063 for the second.

First: YHADPSLVSFLTGLGCPNCIEYFTSQGLQTIYHLQNLTIEDLGALKIPEQYRMTIWRGLQDLK
Second: YHADPSLVSFLTGLGCPNCIEYFTSQGLQRIYHLQNLTIEDLGALKIPEQYRMTIWRGLQDLK
The abundance fitness of the first is higher: 0.085 ± 0.073 for the first, -0.043 ± 0.025 for the second.

Going from YHADPSLVSFLTGLGCPNCIEYFTSQGLQSIYHLQNLTIEGLGALKIPEQYRMTIWRGLQDLK to YHADPSLVSFLTGLGCPNCIEYFTSQGLQSIYHLQNLTIEDLGALKIPEQYRMTIPRGLQDLK, the abundance fitness falls from 0.006 ± 0.041 to -0.893 ± 0.13.

For YHADPSLVSFLTGLGCPNCIEYFTSQGLQSIYHLQNLTIEDLGALKIPEQYRMTIERGLQDLK, the abundance fitness was -0.047 ± 0.039.
